Measurements as given in publication PMC4837482, “The complex binding mode of the peptide hormone H2 relaxin to its receptor RXFP1” (Nature Communications, 2016).
Residue numbers refer to the chain shown, from its start.

What was measured:
[1] = molecular target: T1, RXFP1 (Homo sapiens, UniProt Q9HBX9); experiment: Eu-H2 relaxin saturation binding assay, transfected HEK293T cells; conditions: Mn2+ replacing Eu3+ in the DTPA cage; method not described
T1 construct: transiently transfected human embryonic kidney (HEK) 293T cells expressing full-length RXFP1 and mutants; expressed in transfected cells; host or cells: HEK293T
T1 sequence (Q9HBX9 1-757): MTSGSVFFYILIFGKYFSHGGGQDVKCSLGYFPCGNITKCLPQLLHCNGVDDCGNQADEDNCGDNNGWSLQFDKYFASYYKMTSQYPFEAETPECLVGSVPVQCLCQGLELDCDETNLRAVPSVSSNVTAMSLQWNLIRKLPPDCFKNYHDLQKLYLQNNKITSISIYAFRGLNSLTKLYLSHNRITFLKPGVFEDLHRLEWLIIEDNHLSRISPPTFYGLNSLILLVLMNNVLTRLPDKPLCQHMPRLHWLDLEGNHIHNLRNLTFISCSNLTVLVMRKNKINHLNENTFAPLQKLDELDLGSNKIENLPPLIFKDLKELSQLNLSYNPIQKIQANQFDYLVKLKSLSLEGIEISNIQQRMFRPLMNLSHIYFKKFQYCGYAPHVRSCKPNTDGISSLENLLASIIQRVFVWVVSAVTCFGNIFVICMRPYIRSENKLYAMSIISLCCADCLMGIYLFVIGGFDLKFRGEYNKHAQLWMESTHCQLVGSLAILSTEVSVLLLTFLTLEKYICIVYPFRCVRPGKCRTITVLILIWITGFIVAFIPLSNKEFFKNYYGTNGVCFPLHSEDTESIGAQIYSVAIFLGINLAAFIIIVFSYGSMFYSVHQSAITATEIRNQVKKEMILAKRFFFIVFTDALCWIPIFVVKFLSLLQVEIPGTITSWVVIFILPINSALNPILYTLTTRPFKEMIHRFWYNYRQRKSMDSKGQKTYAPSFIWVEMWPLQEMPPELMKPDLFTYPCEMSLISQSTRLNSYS

[2] = molecular target: T1, RXFP1; experiment: cAMP activity assay (pCRE β-galactosidase reporter), transfected HEK293T cells; format: cell-based; conditions: Mn2+ replacing Eu3+ in the DTPA cage; method not described
Procedure: Media was aspirated and plates stored frozen at −80 °C overnight. […] H2 relaxin dilutions were prepared in minimal media containing 1% DMSO. Positive and negative control stimulations were achieved by incubation with 5 μM Forskolin and minimal media/1% DMSO, respectively. Plates were developed by 10 min of incubation in 25 μl of lysis buffer 1 (100 mM Na2HPO4, pH 8.0, 0.2 mM MgSO4 0.01 mM MnCl2); a further 10 min of incubation in 100 μl of buffer 2 (100 mM Na2HPO4, pH 8.0, 2 mM MgSO4, 0.1 mM MnCl2, 0.5% Triton X-100, 40 mM β-mercaptoethanol); then to each well 25 μl of the β-galactosidase substrate, chlorophenol red-β-D-galactopyranoside (Roche) was added. All incubation steps were conducted with orbital shaking. Color-change was monitored and readings were taken on a Benchmark Plus Microplate Reader (Bio-Rad) at 570 nm. A minimum of three separate experiments were performed, each of them in triplicate, and data were pooled and presented as percentages of the maximum response induced by 5 μM Forskolin±s.e.m.

[3] = molecular target: T2, G41A/D42A-RXFP1(1–72) (Homo sapiens, UniProt Q9HBX9, D64A/G63A); experiment: Paramagnetic line-broadening (1H-15N HSQC) titration with Mn2+-DTPA-(A)-H2; format: binding; conditions: 50 μM G41A/D42A-RXFP1(1–72), 0.2 μM Mn2+-DTPA-(A)-H2; versus wild type
T2 construct: GB1 (N, cleaved yes); made in house; host or cells: E. coli BL21 (DE3) trxB
T2 sequence (Q9HBX9 23-94 G63A/D64A): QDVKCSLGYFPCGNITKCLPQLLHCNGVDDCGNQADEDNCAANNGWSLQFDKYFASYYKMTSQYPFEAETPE
Procedure: (§1) All RXFP1(1–72) protein samples for nuclear magnetic resonance (NMR) experiments were prepared from lyophilized protein in 50 mM imidazole, with 10 mM CaCl2 at pH 6.8. Recombinant human gene-2 H2 relaxin peptide was kindly provided by Corthera. EL1^(475–486)/EL2-GB1 samples were prepared as described above. Titrant and titrand were dialyzed in the same buffer in the same vessel. All NMR experiments were routinely collected at 25 °C on a 700-MHz Bruker Avance HDIII spectrometer equipped with triple resonance cryoprobe. […] Backbone assignments were made from 3D HNCACB, HNCOCACB, HNCO and HNCACO experiments. Spectra were processed using NMRPipe (ref. [43]) and typically Fourier-transformed after applying Lorentz-to-Gauss window functions in the direct dimension and cosine bells in the indirect dimensions. NMR data were analysed using SPARKY (Goddard, T.D. and Kneller, D.G., University of California, San Francisco). Assignments of the mutant RXFP1(1–72) proteins were determined from the assignments of wild-type RXFP1(1–72).
(§2) ^15N{^1H}-NOE experiments[45] (2,048 × 256 data points) were acquired with a saturation pulse of 4 s and an additional relaxation delay of 5 s. Sample conditions were 150 μM RXFP(1–72) or mutants either without or with 450 μM H2 relaxin. Binding to Mn^2+-DTPA-(A)-H2 to RXFP1(1–72) and mutants was monitored by recording 2D ^1H-^15N HSQC (2,048 × 256 data points) for 0.2 μM Mn^2+-DTPA-(A)-H2 against 50 μM RXFP1(1–72). H2 relaxin and its truncates such as A-chain (9–24), H2/I5 chimera and Phe23Ala A-chain mutant H2 were titrated into a complex of 50 μM RXFP1(1–72) and 0.2 μM Mn^2+-DTPA-(A)-H2 with increasing concentrations ranging from 5 to 50 μM.

[4] = molecular target: T3, F50A^Ins-RXFP1(1–72) (Homo sapiens, UniProt Q9HBX9, INS72A); experiment: as above; format: binding; conditions: 50 μM F50A^Ins-RXFP1(1–72), 0.2 μM Mn2+-DTPA-(A)-H2; versus wild type
T3 construct: GB1 (N, cleaved yes); made in house; host or cells: E. coli BL21 (DE3) trxB
T3 sequence (Q9HBX9 with tags, fused parts or gaps INS72A): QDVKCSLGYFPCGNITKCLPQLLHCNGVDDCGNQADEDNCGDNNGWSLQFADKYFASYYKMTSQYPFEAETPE
Procedure: as §1, §2

[5] = molecular target: T4, F50A RXFP1(1–72) (Homo sapiens, UniProt Q9HBX9, F72A); experiment: as above; format: binding; conditions: 50 μM F50A RXFP1(1–72), 0.2 μM Mn2+-DTPA-(A)-H2; versus wild type
T4 construct: GB1 (N, cleaved yes); made in house; host or cells: E. coli BL21 (DE3) trxB
T4 sequence (Q9HBX9 23-94 F72A): T2 sequence (Q9HBX9 23-94 G63A/D64A) with A41G, A42D, F50A
Procedure: as §1, §2

[6] = molecular target: T5, G45A/W46A-RXFP1(1–72) (Homo sapiens, UniProt Q9HBX9, G67A/W68A); experiment: as above; format: binding; conditions: 50 μM G45A/W46A-RXFP1(1–72), 0.2 μM Mn2+-DTPA-(A)-H2; versus wild type
T5 construct: GB1 (N, cleaved yes); made in house; host or cells: E. coli BL21 (DE3) trxB
T5 sequence (Q9HBX9 23-94 G67A/W68A): T2 sequence (Q9HBX9 23-94 G63A/D64A) with A41G, A42D, G45A, W46A
Procedure: as §1, §2

[7] = molecular target: T6, F54A/Y58A RXFP1(1–72) (Homo sapiens, UniProt Q9HBX9, F76A/Y80A); experiment: as above; format: binding; conditions: 50 μM F54A/Y58A RXFP1(1–72), 0.2 μM Mn2+-DTPA-(A)-H2; versus wild type
T6 construct: GB1 (N, cleaved yes); made in house; host or cells: E. coli BL21 (DE3) trxB
T6 sequence (Q9HBX9 23-94 F76A/Y80A): T2 sequence (Q9HBX9 23-94 G63A/D64A) with A41G, A42D, F54A, Y58A
Procedure: as §1, §2

[8] = molecular target: T7, F54A-RXFP1(1–72) (Homo sapiens, UniProt Q9HBX9, F76A); experiment: as above; format: binding; conditions: 50 μM F54A-RXFP1(1–72), 0.2 μM Mn2+-DTPA-(A)-H2; versus wild type
T7 construct: GB1 (N, cleaved yes); made in house; host or cells: E. coli BL21 (DE3) trxB
T7 sequence (Q9HBX9 23-94 F76A): T2 sequence (Q9HBX9 23-94 G63A/D64A) with A41G, A42D, F54A
Procedure: as §1, §2

binding to RXFP1 [1]: no difference | activating RXFP1 [2]: no difference | line-broadening by Mn2+-DTPA-(A)-H2 (binding) [3]: attenuated | line-broadening by Mn2+-DTPA-(A)-H2 (binding) [4]: reduced peak broadening | line-broadening by Mn2+-DTPA-(A)-H2 (binding) [5]: substantially reduced | line-broadening by Mn2+-DTPA-(A)-H2 (binding) [7]: substantially reduced
Substance: Mn^2+-DTPA-(A)-H2: H2 relaxin with a DTPA cage at the N-terminus of the A-chain loaded with Mn2+ (paramagnetic label)
line-broadening by Mn2+-DTPA-(A)-H2 (binding) [6]: substantially less than that observed for wild-type RXFP1(1–72) | line-broadening by Mn2+-DTPA-(A)-H2 (binding) [8]: less than that observed for wild-type RXFP1(1–72)
